In paper PMC5386136 one finds Kd data, which are given here for one substance.

Assay [1] has as its target SHANK3 SPN(R12C)-ARR mutant (rat). Description: ITC. In general terms: Isothermal titration calorimetry measures the heat released or taken up as one component is titrated into another.
Assay [2] has as its target SHANK3 SPN-ARR (residues 1-348) (rat). Description: ITC.

“Rap1b (residues 1-166) (from UniProt P61224 1-166) (natural protein)”: the values for the Kd in assay [1] and in assay [2] were 2200 nM and 200 nM, respectively.
